In patent CN106831988A (SHENZHEN INST OF ADV TECH CAS, dated 2017):

Target: T1, PD-1蛋白 (PD-1抗原) (human, UniProt Q15116 25-167, limits assumed)
T1 construct: The construct is not described; also called A蛋白
Assay: SPR, Bio-Rad ProteOn XPR36, antibody coupled to channel L6, PD-1 antigen as analyte

T1 sequence (Q15116 25-167 limits assumed): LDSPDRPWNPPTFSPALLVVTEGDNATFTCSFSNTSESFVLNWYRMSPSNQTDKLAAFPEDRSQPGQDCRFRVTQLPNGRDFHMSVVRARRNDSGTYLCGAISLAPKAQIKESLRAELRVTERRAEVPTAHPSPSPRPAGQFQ

Kd: 134 pM
koff: 2.94e-05 s⁻¹
kon: 220000 M⁻¹ s⁻¹
B1: 抗人PD-1的单克隆抗体2D1 (2D1株单克隆抗体) (antibody, V domains shown)
VH: QVQLQQSGDDLVKPGASVKLSCKASGYTFTSYWINWIKQRPGQGLEWIGRIAPGSGSTYYNEMFKGKATLTVDTSSSTAYIQLSSLSSEDSAVYFCARLGQYYAMDYWGQGTTLTVSS
VL: DIVMTQTPLSLPVSLGDQASISCRSSQSLVHSNGNTYLHWYLQKPGQSPKLLIYKVSNRFSGVPDRFSGSGSGTDFTLKISRVEAEDLGVYFCSQSTHVPYTFGGGTKLELKR
notes: Mouse monoclonal antibody from a Balb/c x SP2/0 hybridoma; It was purified from ascites, and hybridoma supernatant was used in flow cytometry; it was detected with anti-mouse IgG; also called 2D1-1
